Results published in US20170307628A1 (EIDGENOESSISCHE TECHNISCHE HOCHSCHULE ZURICH, published 2017).

Molecular target: T1, EGFR on cells (UniProt P00533 25-1210, limits assumed)
T1 construct: whole, on cells; also called epidermal growth factor receptor
Assay: flow cytometry on MDA-MB-468 cells, anti-human-Alexa 488

B1: anti-CD3 antibody (COVA489) (antibody, human IgG1, kappa, V domains shown)
VH: QVQLQQSGAELARPGASVKMSCKASGYTFTRSTMHWVKQRPGQGLEWIGYINPSSAYTNYNQKFKDKATLTADKSSSTAYMQLSSLTSEDSAVYYCASPQVHYDYNGFPYWGQGTLVTVSA
VL: QVVLTQSPAIMSAFPGEKVTMTCSASSSVSYMNWYQQKSGTSPKRWIYDSSKLASGVPARFSGSGSGTSYSLTISSMETEDAATYYCQQWSRNPPTFGGGTKLQITR
binding result: no binding (tested: 100 nM)
